Reference: US20200339657A1, “PEPTIDES AND COMBINATION THEREOF FOR USE IN THE IMMUNOTHERAPY AGAINST CANCERS” (Immatics Biotechnologies GmbH, priority 2017, published 2020)

What was measured:
[1] = tested on: CD8+ T cells; assay: In vitro immunogenicity: T-cell priming with aAPCs loaded with peptide/MHC and anti-CD28, multimer readout; type: cell-based, human; conditions: HLA A*02
[2] = molecular target: HLA-A*02:01 (Homo sapiens, UniProt P04439, D140Y/D185E/D98H/E176V/E277Q/G131W/G231S/I119V/I121R/I166T/I218V/L300P/L318F/N151K/N90K/P208A/P217A/Q86G/Q94H/R138H/R169H/T345S); assay: MHC binding assay (UV-ligand exchange, β2m ELISA); conditions: for Peptide exchange: peptide exchange yield, binding to HLA-A*02:01

Substance	Peptide exchange [2]	bind to HLA-A*02 [2]	Wells positive [%] [1]
38 (VMLNSNVLL; listed as Homo sapiens) [compound 38]	“++++” (>75% = ++++)	–	“+” (<20% = +)
42 (KMMALVAEL; listed as Homo sapiens) [compound 42]	“++++” (>75% = ++++)	–	“++++” (>= 70% = ++++)
43 (GLMTIVTSL; listed as Homo sapiens) [compound 43]	“++++” (>75% = ++++)	–	“++” (20%-49% = ++)
50 (ELMPRVYTL; listed as Homo sapiens) [compound 50]	“+++” (>50 = +++)	–	“+” (<20% = +)
52 (YVSSGEMMV; listed as Homo sapiens) [compound 52]	“+++” (>50 = +++)	–	–
53 (LLMTSLTES; listed as Homo sapiens) [compound 53]	“+++” (>50 = +++)	–	–
54 (YLPPTDPRMSV; listed as Homo sapiens) [compound 54]	“++++” (>75% = ++++)	–	–
55 (RLWQIQHHL; listed as Homo sapiens) [compound 55]	“+++” (>50 = +++)	–	–
56 (FLNQIYTQL; listed as Homo sapiens) [compound 56]	“++++” (>75% = ++++)	–	“+++” (50%-69% = +++)
KTLGKLWRL (listed as Homo sapiens) [SEQ ID NO: 267]	–	binds to HLA-A*02	–

Further lines, with some results ahead:

Peptide exchange [2]	bind to HLA-A*02 [2]	Substance	Wells positive [%] [1]
“++++” (>75% = ++++)	–	57 (GLTGVIMTI; listed as Homo sapiens) [compound 57]	“++++” (>= 70% = ++++)
“++++” (>75% = ++++)	–	59 (KLHEIYIQA; listed as Homo sapiens) [compound 59]	–
“++++” (>75% = ++++)	–	60 (GLPDFVKEL; listed as Homo sapiens) [compound 60]	“++” (20%-49% = ++)
“++++” (>75% = ++++)	–	61 (RLFGLFLNNV; listed as Homo sapiens) [compound 61]	–
“++++” (>75% = ++++)	–	249 (ALFPERITV; listed as Homo sapiens) [compound 249]	“++” (20%-49% = ++)
“+” (>10% = +)	–	250 (KMILKMVQL; listed as Homo sapiens) [compound 250]	“++” (20%-49% = ++)
“+++” (>50 = +++)	–	251 (RLASRPLLL; listed as Homo sapiens) [compound 251]	–
